In patent publication US20050009137A1 (CEDARS SINAI MEDICAL CENTER, published 2005):

Assays:
GST protein alone = target: T1, GST protein alone (UniProt P08515 1-218 = GST); test: GST pull-down from protein extracts of cells overexpressing IEBP, SDS-PAGE and blot with anti-hsp27 antibody
T1 construct: Control in the GST pull-down; also called GST alone

recombinant human ERα = target: T2, recombinant human ERα (human, UniProt P03372 1-595); test: EMSA with consensus ERE probe, recombinant human ERα and extract of IEBP transfectant; supershift with anti-hsp27 antibody
T2 construct: also called estrogen receptor alpha
T2 sequence (looked up): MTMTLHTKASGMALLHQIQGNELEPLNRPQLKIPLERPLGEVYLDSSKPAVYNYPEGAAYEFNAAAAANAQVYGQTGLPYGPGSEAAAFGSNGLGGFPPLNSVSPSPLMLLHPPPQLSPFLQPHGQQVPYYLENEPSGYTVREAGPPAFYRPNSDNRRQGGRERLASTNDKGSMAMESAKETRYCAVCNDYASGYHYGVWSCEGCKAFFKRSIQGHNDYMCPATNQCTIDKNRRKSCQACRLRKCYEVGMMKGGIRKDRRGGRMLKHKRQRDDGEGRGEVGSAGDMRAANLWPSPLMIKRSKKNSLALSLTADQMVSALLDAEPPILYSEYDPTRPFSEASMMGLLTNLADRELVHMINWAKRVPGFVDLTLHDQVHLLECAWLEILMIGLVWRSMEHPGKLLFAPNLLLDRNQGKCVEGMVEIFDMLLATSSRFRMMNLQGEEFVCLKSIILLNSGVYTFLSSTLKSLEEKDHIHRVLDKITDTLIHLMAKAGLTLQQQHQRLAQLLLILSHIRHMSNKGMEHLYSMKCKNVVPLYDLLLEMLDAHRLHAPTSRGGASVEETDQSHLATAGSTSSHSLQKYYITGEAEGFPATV

T1 sequence (P08515 whole entry): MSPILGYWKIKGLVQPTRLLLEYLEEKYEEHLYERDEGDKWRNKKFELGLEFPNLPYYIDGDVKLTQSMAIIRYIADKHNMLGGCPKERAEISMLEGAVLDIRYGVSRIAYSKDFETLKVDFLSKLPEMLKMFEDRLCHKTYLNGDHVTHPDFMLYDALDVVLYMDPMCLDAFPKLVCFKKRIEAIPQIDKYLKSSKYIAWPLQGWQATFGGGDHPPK

B1: intracellular estradiol binding protein (IEBP) of New World primate B95-8 cells (other)
chain: MTERHVPFSLLQSPSWDPFRDWYPHSHLFDQAFGMPRLPEEWSQWFGTSSWPGYVRPLPPTTVEGPAVAAPAYSRALNQQLSSGVSETADRWRVSLDVNHFAPEELTVKTKDGVVEITGKHEERQDEHGFISRCFTRKYSLPPGVDPTQVSPSLSPEGTLTVDAPMSKPATQSNEITIPVTFESRAQLGGPEAAKSDRSAAK
notes: also called hsp27-like IEBP; hsp 27-related IEBP
Does B1 bind (GST protein alone)?
Result: no binding

Does B1 bind (recombinant human ERα)?
Result: binds
